Our source for the activity values is US20220348939.

This series concerns Type I-F Csy (Cascade) complex with Cas2-3 (cas1, cas3, csy1-csy4), endogenous (Zymomonas mobilis ZM4). Put plainly: cell_activity.

For the sequence “AUGCCGCUUUCGAUCAGGCCGCCGCCAAGAUU / ATGCCGCTTTCGATCAGGCCGCCGCCAAGATT / AATCTTGGCGGCGGCCTGATCGAAAGCGGCAT [ZMO0038 knockout crRNA spacer ; ZMO0038 target]”, the activity (PAM 5'-CCC-3', knockout efficiency) was 100%.
Take “AUCUUGACUCCCUCCAUGCACUUAAAAAAUCU / ATCTTGACTCCCTCCATGCACTTAAAAAATCT / AGATTTTTTAAGTGCATGGAGGGAGTCAAGAT [ZMO0038 His-tag crRNA spacer ; ZMO0038 start codon target]”: for the setting “PAM 5'-TCC-3', His-tag insertion efficiency”, the activity was determined as 100%.
